{"source": "patent US8404239B2", "about": "“Anti-Notch2 NRR antibodies” (Genentech, Inc., priority 2008, dated 2013)", "key": {"Notch2 signaling": {"system": "Notch2 signaling", "assay": "Co-culture Notch reporter assay, Notch2 signaling (U87MG cells + Jag1 cells)", "format": "cell-based", "procedure": "NIH-3T3 cells stably transfected with Jag1 were used to induce Notch signaling in NIH-3T3 cells stably transfected with Notch1 (except for “−Jag1”, which used untransfected NIH-3T3 cells in place of the Jag1-expressing cells). […] NIH-3T3 cells stably transfected with Jag1 were used to induce Notch signaling in U87MG cells, which express high levels of Notch2. The assay was performed as described in (A). […] The assay was performed as in (A) except that the receptor-expressing cells were generated by transient transfection of plasmids expressing the indicated Notch1 receptors.\nCo-culture assay in U87MG cells, as described in FIG. 10B.\nNIH-3T3 cells either stably transfected with Notch 1 or transiently transfected with plasmids containing other Notch receptors were co-transfected with a Notch-responsive TP-1 (12× CSL) Firefly luciferase reporter and a constitutively active Renilla Luciferase reporter (pRL-CMV, Promega) to control for transfection efficiency. Cells are allowed to recover from the transfection from 6 hours to overnight. Treatments of antibodies and NIH-3T3 cells stably transfected with ligand are used to stimulate the receptor cells. After 20 hours, firefly and Renilla luciferase are measured with Dual Glo Luciferase Assay system (Promega). Eight replicates were analyzed for each condition by dividing the Firefly signal by the Renilla signal to control for transfection efficiency. The mean and standard deviation were calculated and values were normalized to calculated values for co-culture stimulated with NIH-3T3 cells without ligand transfected."}, "[1]": {"system": "splenic marginal zone B (MZB) cells", "assay": "Marginal zone B cell analysis in Balb/c mice", "format": "in vivo, mouse", "conditions": "5 mg/kg, spleen, CD21/CD23 FACS, three animals", "procedure": "Balb/c mice were injected four times every four days with 5 mg/kg of α-gD isotype control, α-NRR1 or α-NRR2, and cells were harvested from the thymus or spleen on day 13, one day after the fourth dose. (A) Thymus weight measurements. Thymus weights (in mg) are expressed relative to total body weight (in g). Values represent the mean plus standard deviation for three mice per group. (B) Thymus cell count. (C) CD4 and CD8 FACS to identify CD4^+/CD8^+ double-positive T cells. Numbers represent the percentage of thymic cells in the double-negative, single-positive and double-positive populations. […] (D) CD21 and CD23 FACS to identify marginal zone B cells. Numbers represent the mean percentages ±standard deviation (from three animals) of cells within the MZB gate, which is boxed; p values are also noted; representative dot plots from one of the three animals in each group are graphed.\nSplenocytes were isolated from the mice and were stained for FACS with B220-PerCP, CD23-PE and CD21-FITC (BD Biosciences) as previously described (Saito, et al., Immunity, Vol. 18, 675-685, May 2003)."}, "[2]": {"system": "Notch1-NRR / Notch2 NRR chimeric proteins", "assay": "Epitope mapping: plate binding to Notch1-NRR/Notch2 NRR chimeric proteins fused to alkaline phosphatase", "conditions": "domain swap", "procedure": "The indicated NRR protein fragments (dark blue, Notch1 sequences; light blue, Notch2 sequences) were expressed as secreted proteins fused to alkaline phosphatase to enable rapid measurements of antibody binding in a plate-based assay. […] Antibody binding was assessed by measuring alkaline phosphatase activity that remained bound to the plate. […] (B) Structure of human Notch NRR1. NRR1 is shown as a C-alpha cartoon. The three calcium ions in the LNR motifs are shown as spheres. The position of the S2 cleavage site is marked with an arrow. (C) Superposition of NRR1 on NRR2 (chain A from pdb code 2OO4) based on structurally conserved atoms. NRR1 (shaded) and NRR2 (white) are shown as C-alpha traces. (D) Open-book view of the interface between NRR1 (left) and α-NRR1 Fab (right, border between heavy and light chains shown as a black dashed line). The extent to which the solvent accessible surface area is buried by complex formation is indicated.\nSynthetic Notch1 and Notch2 NRR sequences were designed with unique restriction sites at junctions between the five domains of the NRR-LNR-A; LNR-B; LNR-C; HD-N; and HD-C—and produced by Blue Heron Technology (Bothell, Wash.). Swapping various domains between the two synthetic sequences, using the engineered restriction sites, generated chimeric NRR proteins. The chimeric clones were assembled in a modified pUC19 vector and transferred to a SEAP containing vector, pCSC.AP, for expression. AP-tagged NRR proteins were produced by transfection of 293T cells. After 72 hr culture, the conditioned media was collected, cleared by centrifugation, and tested for AP activity using the Phospha-Light System (Applied Biosystems, Bedford, Mass.). The AP activity in each sample was normalized and an ELISA was performed to test the ability of α-NRR1 or α-NRR2 to bind the chimeric NRR proteins. The ELISA was performed as follows: either α-NRR1 or α-NRR2 was captured by a plate bound α-Fc antibody in 96-well format and incubated with the conditioned media overnight. The plate was washed to remove unbound protein, and the captured protein was tested for AP activity using the Phospha-Light System."}, "[3]": {"system": "intestinal cell differentiation", "assay": "Histology and immunohistochemistry of mouse intestine tissue", "format": "in vivo", "conditions": "5 mg/kg, one day after final dosing (FIGS. 15C and 24B)", "source_text": "(A) Total body weight change (mean+/−standard deviation) vs. time. […] Arrows mark the days of dosing. (B) Immunohistochemical analyses of small intestines. […] In each row as indicated, staining is shown for haemotoxylin and eosin (H & E), Alcian Blue for mucin and to mark secretory goblet cells, lysozyme to mark Paneth cells, Ki-67 for proliferation and Hes1 as a Notch downstream target. See FIGS. 19 and 20 for analyses of the large intestine at day 7 and of the small intestine at day 2, respectively. Bar=40 μm. (C) Comparison of Notch1- versus Notch2-specific inhibition on small intestinal cell differentiation. Small intestines from the study described in (A) were prepared for Alcian Blue and Ki-67 one day after the final dosing with α-gD, α-NRR1 or α-NRR2, as indicated. Bar=50 μm.\nFormalin-fixed and paraffin-embedded mouse small intestine tissues were sectioned at 3 micron thickness. Histochemical identification of intestinal cell types was performed with Alcian blue as recommended by the manufacturer (PolyScientific). For anti-Ki67 staining, sections were pretreated with Target Retrieval Solution (S1700, DAKO), and incubated with rabbit anti-Ki67 (1:200, clone SP6, Neomarkers). Secondary goat anti-rabbit at 7.5 μg/ml (Vector labs) was detected with the Vectastain ABC Elite Kit (Vector labs). Ki67 stained sections were counterstained with Mayer's haemotoxylin. For anti-lysozyme staining, sections were processed on the Discovery XT platform (Ventana Medical Systems, Inc.) using CC1m epitope recovery conditions, OmniMap-rabbit detection and Ventana haemotoxylin II/with bluing counterstain. For HES-1 staining, anti-rat HES-1 (clone NM1, MBL, International) was followed by TSA-HRP.\nThe effect of inhibiting both Notch1 and Notch2 on intestinal cell fate determination was also investigated. […] The intestines were harvested and stained with H&E to reveal the crypt morphology. […] Further experimentation confirmed this observation."}}, "note": "Several values for one entry are separate records, joined by “and”; a condition that tells them apart may be missing. Equal values may be shown once.", "data": [{"molecule": "anti-NRR2: affinity matured form of Antibody D, phage library-derived human anti-Notch2 NRR monoclonal antibody (antibody, V domains shown) VH: EVQLVESGGGLVQPGGSLRLSCAASGYTFSSYGMSWVRQAPGKGLEWVSYIYPYSGATYYADSVKGRFTISADTSKNTAYLQMNSLRAEDTAVYYCARHSGYYRISSAMDVWGQGTLVTVSA VL: DIQMTQSPSSLSASVGDRVTITCRASQNIKRFLAWYQQKPGKAPKLLIYGASTRESGVPSRFSGSGSGTDFTLTISSLQPEDFATYYCQQYYRSPHTFGQGTKVEIKR", "values": [{"measurement": "effect on Notch2 reporter signaling", "setting": "Notch2 signaling; Jag1-induced, DAPT 5 μM", "result": "inhibition of Notch2 signaling"}, {"measurement": "inhibition of signaling induced through Jag1, Jag2, D111 and D114", "setting": "Notch2 signaling; all Notch ligands tested", "result": "inhibited signaling"}, {"measurement": "percentage of cells within the MZB gate (mean ± standard deviation)", "setting": "[1]", "result": "0.97% and 0.97+/−0.45%"}, {"measurement": "binding to chimera containing only the LNR-A and HD-C subdomains from NRR2", "setting": "[2]", "result": "weak but detectable binding"}, {"measurement": "binding to chimera with LNR-A of NRR1 in the NRR2 backbone", "setting": "[2]", "result": "completely disrupted"}, {"measurement": "binding to chimeras C.Hn and BC (only three subdomains from NRR2)", "setting": "[2]", "result": "full binding"}, {"measurement": "binding to chimeras with swaps of LNR-B or LNR-C in the NRR2 backbone", "setting": "[2]", "result": "no effect"}, {"measurement": "effects on small intestine (goblet cells, Alcian Blue)", "setting": "[3]", "result": "did not cause any detectable effects"}]}]}
